{
  "source": "paper PMC10294844",
  "about": "“Functional Diversity of Homologous Oxidoreductases—Tuning of Substrate Specificity by a FAD-Stacking Residue for Iron Acquisition and Flavodoxin Reduction” (Antioxidants, 2023)",
  "proteins": {"B1": {"name": "Bacillus cereus heme-degrading monooxygenase IsdG (enzyme)", "chain": "MIIVTNTAKITKGNGHKLIERFNKVGKVETMPGFLGLEVLLTQNTVDYDEVTISTRWNAKEDFQGWTKSAAFKDAHSHQGGMPEYILDNKIAYYDVKVVRMPMAAAQ", "notes": "also called Bc IsdG; IsdGapo"}},
  "target": "the molecule itself",
  "assay": "crystal structure",
  "data": [
    {"protein": "B1", "values": [
      {"measurement": "binding result", "value": "binds"}
    ]}
  ]
}
